In patent publication US20260258125A1 (NONA BIOSCIENCES SUZHOU, published 2026):
Where a chain is given by its changes, count along the chain named.

T1: recombinant CEACAM5-his protein, biotinylated (UniProt P06731 35-685, limits assumed, biotinylated (sites not given))
T1 construct: not shown: His tag
T1 sequence (looked up): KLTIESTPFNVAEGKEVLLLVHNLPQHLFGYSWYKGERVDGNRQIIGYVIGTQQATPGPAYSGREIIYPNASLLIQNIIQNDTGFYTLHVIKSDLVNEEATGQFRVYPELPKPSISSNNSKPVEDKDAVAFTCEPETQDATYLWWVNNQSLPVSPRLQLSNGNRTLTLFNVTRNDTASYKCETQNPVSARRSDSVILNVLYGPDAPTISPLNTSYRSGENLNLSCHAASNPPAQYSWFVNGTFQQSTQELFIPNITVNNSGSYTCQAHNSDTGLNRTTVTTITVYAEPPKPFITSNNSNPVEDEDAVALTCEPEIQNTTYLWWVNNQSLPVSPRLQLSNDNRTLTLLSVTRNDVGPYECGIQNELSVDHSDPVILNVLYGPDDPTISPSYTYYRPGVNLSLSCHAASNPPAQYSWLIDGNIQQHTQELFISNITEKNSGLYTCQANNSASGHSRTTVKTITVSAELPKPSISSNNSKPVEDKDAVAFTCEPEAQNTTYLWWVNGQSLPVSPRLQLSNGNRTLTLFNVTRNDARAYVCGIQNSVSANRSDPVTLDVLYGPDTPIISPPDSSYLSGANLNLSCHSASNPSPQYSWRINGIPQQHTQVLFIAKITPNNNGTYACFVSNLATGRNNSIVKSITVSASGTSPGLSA

T2: human CEACAM5 protein (human, UniProt P06731 35-685)
T2 construct: also called huCEACAM5
T2 sequence (looked up): T1 sequence (looked up)

T3: human CEACAM1 protein (human, UniProt P13688 35-428)
T3 construct: also called huCEACAM1
T3 sequence (looked up): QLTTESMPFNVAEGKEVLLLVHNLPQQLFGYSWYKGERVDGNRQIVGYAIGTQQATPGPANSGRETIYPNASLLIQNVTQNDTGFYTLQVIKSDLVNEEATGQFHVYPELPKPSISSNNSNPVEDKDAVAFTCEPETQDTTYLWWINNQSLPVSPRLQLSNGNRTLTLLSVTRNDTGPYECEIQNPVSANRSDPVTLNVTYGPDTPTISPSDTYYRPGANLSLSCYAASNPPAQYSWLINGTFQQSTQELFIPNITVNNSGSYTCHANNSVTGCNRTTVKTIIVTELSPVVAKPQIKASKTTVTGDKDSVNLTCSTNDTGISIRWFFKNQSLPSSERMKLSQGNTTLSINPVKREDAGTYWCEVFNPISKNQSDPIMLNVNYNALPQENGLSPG

T4: human CEACAM6 protein (human, UniProt P40199 35-320)
T4 construct: also called huCEACAM6
T4 sequence (looked up): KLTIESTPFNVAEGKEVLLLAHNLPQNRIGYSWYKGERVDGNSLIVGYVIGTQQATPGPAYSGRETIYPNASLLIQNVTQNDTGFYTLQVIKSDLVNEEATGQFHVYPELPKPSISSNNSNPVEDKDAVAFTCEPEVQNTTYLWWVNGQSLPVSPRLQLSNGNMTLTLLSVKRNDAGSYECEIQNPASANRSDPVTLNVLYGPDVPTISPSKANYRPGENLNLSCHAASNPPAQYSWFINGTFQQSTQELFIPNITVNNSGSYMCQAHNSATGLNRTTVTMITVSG

B1: PR304294 (antibody, human IgG1, kappa, V domains shown)
VH: EVQLLESGGGLVQPGGSLRLSCAASGFTFSSYAMSWVRQAPGKGLEWVSAISGTTYNTYYAGSVKGRFTISRDNSKNTLYLQMNSLRAEDTAVYYCAKGISVAGYYYYGMDVWGQGTTVTVSS
VL: EIVMTQSPATLSVSPGERATLSCRASQSVISNLAWYQQKPGQAPRLLIYGASTRATGIPARFSGSGSGTEFTLTISSLQSEDFAVYYCHQYNNWPLTFGGGTKVEIKR
notes: Recombinant full antibody
B2: PR304171 (antibody, human IgG1, kappa, V domains shown)
VH: not shown
VL: B1 VL with S28N, Y36H, G50T, A51T, H89Q
notes: Recombinant full antibody

What was measured:
[1] = biological target: T1, recombinant CEACAM5-his protein, …; assay: Octet epitope binning on biotinylated CEACAM5-his; competitor PR304171
Procedure: (§1) In epitope binning analysis using Octet, antibodies were tested against other antibodies in a pairwise fashion to see if antibodies block one another's binding to the epitope of the antigen. The first and second antibodies was diluted into same concentration which could saturate the binding of immobilized antigens. Recombinant CEACAM5-his protein was biotinylationed and was then used as antigen and immobilized to SA sensor. The first antibody was associated with antigen and then followed by the second antibody. Data were analyzed by ForteBio Data Analysis Software (version 8.0, Pall ForteBio). The rate of RU values of the same antibody as 2nd antibody to as 1st antibody was calculated as the co-binding rate of this antibody to other antibodies.

[2] = biological target: T1, recombinant CEACAM5-his protein, …; assay: Octet epitope binning on biotinylated CEACAM5-his; competitor PR304169
Procedure: as §1

[3] = biological target: T1, recombinant CEACAM5-his protein, …; assay: Octet epitope binning on biotinylated CEACAM5-his; competitor PR303561
Procedure: as §1

[4] = biological target: T1, recombinant CEACAM5-his protein, …; assay: Octet epitope binning on biotinylated CEACAM5-his; competitor PR304294
Procedure: as §1

[5] = biological target: T2, human CEACAM5 protein; assay: ELISA, antigen coated on plate
Description: (§2) Binding of recombinant anti-CEACAM5/6 dual-binding monoclonal antibodies against human and cynomolgus CEACAM5, and human CEACAM6 (Uniprot P40199), human CEACAM 1, 3 (NP_001806.2, Sino Biological 11933-H08H) and 8 (NP_001807.2, Acro Bio CE8-H5224) were detected by ELISA. Anti-CEACAM5/6 dual-antibodies were serially diluted in staining buffer (PBS containing 2% FBS). […] ELISA was used to test the binding between antibody containing supernatant or purified antibodies and the antigen. Briefly, the antigens were coated on a 96-well high binding plate overnight at 4° C. The plate was washed with PBST three times, incubated with blocking buffer (2% Bovine Serum Albumin) for one hour at 37° C., washed with PBST three times and incubated with antibody containing supernatant or purified antibodies at desired dilutions or concentrations for one hour at 37° C. A secondary antibody, anti-human Fc-HRP (Jackson Laboratory, 109-035-097) was used for detection of the targeted antibody. TMB and stopping solution were used for detection of HRP signal. The HRP signal was read on a SPECTRAMAX plate reader.

[6] = biological target: T3, human CEACAM1 protein; assay: ELISA, antigen coated on plate
Description: as §2

[7] = biological target: T4, human CEACAM6 protein; assay: ELISA, antigen coated on plate
Description: as §2

[8] = biological target: T5, cyno CEACAM5 protein (cynomolgus monkey); assay: ELISA, antigen coated on plate
T5 construct: also called cynomolgus CEACAM5
Description: as §2

Binder | co-binding rate [1] | co-binding rate [2] | co-binding rate [3] | co-binding rate [4] | EC50 [5] | binding result [6] | EC50 [7] | EC50 [8]
B1 | -4.88% | 1.02% | 102% | 1.8% | 40 pM | no binding | 220 pM | 90 pM
B2 | 13.7% | 20.4% | 101% | 24.4% | 150 pM | no binding | 24100 pM | 1250 pM
